Experimental data published in patent publication US20240343816A1 (INSTITUTE OF HEALTH AND MEDICINE HEFEI COMPREHENSIVE …, published 2024).

Molecular target: T1, human-derived IL-6Rα protein (human, UniProt P08887 20-365, limits assumed)
T1 construct: Described only as 'soluble human IL-6Rα protein'; also called h-IL-6Rα; soluble human IL-6Rα protein
T1 sequence (looked up): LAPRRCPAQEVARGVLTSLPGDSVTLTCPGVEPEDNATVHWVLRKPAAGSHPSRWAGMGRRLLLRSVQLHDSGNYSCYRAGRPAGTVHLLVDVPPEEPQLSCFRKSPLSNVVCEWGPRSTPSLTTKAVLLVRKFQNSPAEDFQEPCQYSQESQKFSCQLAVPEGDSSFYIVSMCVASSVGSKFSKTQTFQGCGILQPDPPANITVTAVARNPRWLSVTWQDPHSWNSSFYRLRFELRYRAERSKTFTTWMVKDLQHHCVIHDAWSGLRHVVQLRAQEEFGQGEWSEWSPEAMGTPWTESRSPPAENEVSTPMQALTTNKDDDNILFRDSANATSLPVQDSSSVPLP
Experiment: SPR, h-IL-6Rα immobilized on a CM5 chip, 2S3-3D as analyte at 250, 125, 62.5, 31.2 and 15.6 nM
Description: The binding kinetics experiments for detecting antigen-antibody were carried out by Biocare Molecular Biological Interaction Platform. […] The binding time was set at 180 s/dissociation time at 200 s. The binding and dissociation of antigen and antibody were observed, and the data were analyzed by the corresponding analysis software.

Kd: 6.33 nM
B1: nanobody 2S3-3D (VHH)
VHH: QLQLVESGGGLVRPGGSLRLSCTIHGVTLDWYAVGWFRQAPGKEREGVSCISSSDGSTYYADSVKGRFTISRDNVKNTMYLQMNSLKPEDTAVYYCAMVFTTAQAMGVPFHDFEYDYWGPGTQVTVSS
notes: Alpaca-derived VHH expressed from pTT5 in 293F cells; also called anti-h-IL-6Rα nanobody; the nanobody
